Measurements as given in paper PMC6068138, “Identification of a 57S translation complex containing closed-loop factors and the 60S ribosome subunit” (Scientific Reports, 2018).

Columns and labels:
Conditions in all cases: partners not purified
[1] = molecular target: T1, eIF4E-Flag (mRNA cap binding protein) (Saccharomyces cerevisiae, UniProt P07260 1-213); experiment: co-IP + AUC; one-step Flag pull down of eIF4E-Flag from yeast cell extracts (cycloheximide added before lysis); Flag eluate analysed by AU-FDS for the GFP tagged protein, 20 °C, 15,000 rpm; cells on glucose or glucose depleted 10 min
T1 construct: bait of the one-step Flag pull down; also called eIF4-Flag; source: S. cerevisiae, expressed from plasmid YC801 (eIF4E-Flag URA3), in cell extract
T1 sequence (looked up): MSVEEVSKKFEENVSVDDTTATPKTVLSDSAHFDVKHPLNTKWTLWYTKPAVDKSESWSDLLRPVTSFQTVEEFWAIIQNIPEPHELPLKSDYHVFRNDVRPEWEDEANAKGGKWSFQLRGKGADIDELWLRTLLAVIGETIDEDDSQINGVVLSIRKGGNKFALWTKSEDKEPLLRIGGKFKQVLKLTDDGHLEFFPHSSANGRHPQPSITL

[2] = molecular target: T2, Flag-PAB1 (poly(A)-binding protein) (Saccharomyces cerevisiae, UniProt P04147 1-577); experiment: co-IP + AUC; one-step Flag pull down of Flag-PAB1 from yeast cell extracts (cycloheximide added before lysis); Flag eluate analysed by AU-FDS for the GFP tagged protein, 20 °C, 15,000 rpm; cells on glucose, glucose depleted 10 min, glucose added back 1 min, or 30 °C to 46 °C 1 min
T2 construct: bait of the one-step Flag pull down; also called PAB1-Flag; source: S. cerevisiae, expressed from plasmid YC776 (Flag-PAB1 URA3), in cell extract
T2 sequence (looked up): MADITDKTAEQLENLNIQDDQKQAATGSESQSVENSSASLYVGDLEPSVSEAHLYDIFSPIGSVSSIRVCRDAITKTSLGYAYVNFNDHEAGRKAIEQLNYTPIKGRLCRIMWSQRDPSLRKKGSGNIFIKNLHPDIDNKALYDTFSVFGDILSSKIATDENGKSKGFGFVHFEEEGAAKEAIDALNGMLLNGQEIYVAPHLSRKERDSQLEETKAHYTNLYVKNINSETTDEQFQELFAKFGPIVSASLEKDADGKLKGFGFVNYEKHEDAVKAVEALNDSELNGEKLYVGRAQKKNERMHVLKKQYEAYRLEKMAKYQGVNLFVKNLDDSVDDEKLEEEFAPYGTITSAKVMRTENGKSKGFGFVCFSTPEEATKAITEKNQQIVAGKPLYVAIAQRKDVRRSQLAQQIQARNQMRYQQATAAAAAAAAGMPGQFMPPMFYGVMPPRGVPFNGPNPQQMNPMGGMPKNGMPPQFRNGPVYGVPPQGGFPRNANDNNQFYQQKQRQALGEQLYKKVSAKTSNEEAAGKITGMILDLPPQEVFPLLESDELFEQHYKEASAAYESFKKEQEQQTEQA

[3] = molecular target: T2, Flag-PAB1 (poly(A)-binding protein); experiment: co-IP + AUC; stoichiometric analysis: Flag-PAB1 purified material split and run at the same time by AU-FDS (GFP protein) and AU-A230 (total material); standards STM1-GFP and RPS4B-GFP; values relative to 100 mRNA bound by ribosomes; cells on glucose, 30 °C to 46 °C 1 min, or glucose depleted 10 min and added back 1 min
[4] = molecular target: T2, Flag-PAB1 (poly(A)-binding protein); experiment: as above; remark: listed apart in the source
[5] = molecular target: T1, eIF4E-Flag (mRNA cap binding protein); experiment: co-IP + AUC; stoichiometric analysis: eIF4E-Flag purified material split and run at the same time by AU-FDS (GFP protein) and AU-A230 (total material); standards STM1-GFP and RPS4B-GFP; values relative to 100 mRNA bound by ribosomes; cells on glucose

| Binder | fold change of abundance in the 57S complex, glucose depleted against glucose [1] | fold change of abundance in the 77S complex, glucose depleted 10 min against glucose [2] | fold change of association with the 77S complex, 46 °C 1 min against 30 °C [2] | abundance in the Flag-PAB1 39S complex (30 °C to 46 °C 1 min) [3] | abundance in the Flag-PAB1 39S complex (Glu + − 10 min + 1 min) [3] | abundance in the Flag-PAB1 57S complex (30 °C to 46 °C 1 min) [3] | abundance in the Flag-PAB1 57S complex (Glu + − 10 min +1 min) [3] | abundance in the Flag-PAB1 39S complex (Glc+) [4] | abundance in the Flag-PAB1 57S complex (Glc+) [4] | abundance in the eIF4E-Flag 39S complex (Glc+) [5] | abundance in the eIF4E-Flag 57S complex (Glc+) [5] |
| --- | --- | --- | --- | --- | --- | --- | --- | --- | --- | --- | --- |
| RPL6B-GFP (natural protein, Saccharomyces cerevisiae, UniProt P05739 1-176, looked up, large ribosomal subunit protein RPL6B, Saccharomyces cerevisiae; part of the 60S ribosomal subunit in the extract; source: S. cerevisiae strain carrying the GFP fusion, in cell extract) MTAQQAPKWYPSEDVAAPKKTRKAVRPQKLRASLVPGTVLILLAGRFRGKRVVYLKHLEDNTLLVTGPFKVNGVPLRRVNARYVIATSTKVSVEGVNVEKFNVEYFAKEKLTKKEKKEANLFPEQQTKEIKTERVEDQKVVDKALLAEIKKTPLLKQYLSASFSLKNGDKPHLLKF | 1.8 fold | – | – | – | – | – | – | – | – | – | – |
| translation termination factor eRF1 (natural protein, Saccharomyces cerevisiae, UniProt P12385 1-437, looked up, translation termination factor eRF1, Saccharomyces cerevisiae; source: S. cerevisiae, in cell extract) MDNEVEKNIEIWKVKKLVQSLEKARGNGTSMISLVIPPKGQIPLYQKMLTDEYGTASNIKSRVNRLSVLSAITSTQQKLKLYNTLPKNGLVLYCGDIITEDGKEKKVTFDIEPYKPINTSLYLCDNKFHTEVLSELLQADDKFGFIVMDGQGTLFGSVSGNTRTVLHKFTVDLPKKHGRGGQSALRFARLREEKRHNYVRKVAEVAVQNFITNDKVNVKGLILAGSADFKTDLAKSELFDPRLACKVISIVDVSYGGENGFNQAIELSAEALANVKYVQEKKLLEAYFDEISQDTGKFCYGIDDTLKALDLGAVEKLIVFENLETIRYTFKDAEDNEVIKFAEPEAKDKSFAIDKATGQEMDVVSEEPLIEWLAANYKNFGATLEFITDKSSEGAQFVTGFGGIGAMLRYKVNFEQLVDESEDEYYDEDEGSDYDFI | – | 4 fold | 2 fold | – | – | – | – | – | – | – | – |
| eIF4E, GFP tagged (natural protein, Saccharomyces cerevisiae, UniProt P07260 1-213, looked up, source: S. cerevisiae strain carrying the GFP fusion, in cell extract) MSVEEVSKKFEENVSVDDTTATPKTVLSDSAHFDVKHPLNTKWTLWYTKPAVDKSESWSDLLRPVTSFQTVEEFWAIIQNIPEPHELPLKSDYHVFRNDVRPEWEDEANAKGGKWSFQLRGKGADIDELWLRTLLAVIGETIDEDDSQINGVVLSIRKGGNKFALWTKSEDKEPLLRIGGKFKQVLKLTDDGHLEFFPHSSANGRHPQPSITL | – | – | – | 20 ± 2.5 relative to 100 mRNA | 14 ± 3.8 relative to 100 mRNA | 21 ± 9.4 relative to 100 mRNA | 5.1 ± 2.1 relative to 100 mRNA | 28 ± 9.5 relative to 100 mRNA | 14 ± 2.9 relative to 100 mRNA | – | – |
| eIF4G1, GFP tagged (natural protein, Saccharomyces cerevisiae, UniProt P39935 1-952, looked up, eIF4G1, Saccharomyces cerevisiae; source: S. cerevisiae strain carrying the GFP fusion, in cell extract) MTDETAHPTQSASKQESAALKQTGDDQQESQQQRGYTNYNNGSNYTQKKPYNSNRPHQQRGGKFGPNRYNNRGNYNGGGSFRGGHMGANSSNVPWTGYYNNYPVYYQPQQMAAAGSAPANPIPVEEKSPVPTKIEITTKSGEHLDLKEQHKAKLQSQERSTVSPQPESKLKETSDSTSTSTPTPTPSTNDSKASSEENISEAEKTRRNFIEQVKLRKAALEKKRKEQLEGSSGNNNIPMKTTPENVEEKGSDKPEVTEKTKPAEEKSAEPEVKQETPAEEGEQGEKGQIKEESTPKVLTFAERLKLKKQQKEREEKTEGKENKEVPVQEETKSAIESAPVPPSEQVKEETEVAETEQSNIDESATTPAIPTKSDEAEAEVEAEAGDAGTKIGLEAEIETTTDETDDGTNTVSHILNVLKDATPIEDVFSFNYPEGIEGPDIKYKKEHVKYTYGPTFLLQFKDKLNVKADAEWVQSTASKIVIPPGMGRGNRSRDSGRFGNNSSRGHDFRNTSVRNMDDRANSRTSSKRRSKRMNDDRRSNRSYTSRRDRERGSYRNEEKREDDKPKEEVAPLVPSANRWVPKFKSKKTEKKLAPDGKTELLDKDEVERKMKSLLNKLTLEMFDAISSEILAIANISVWETNGETLKAVIEQIFLKACDEPHWSSMYAQLCGKVVKELNPDITDETNEGKTGPKLVLHYLVARCHAEFDKGWTDKLPTNEDGTPLEPEMMSEEYYAAASAKRRGLGLVRFIGFLYRLNLLTGKMMFECFRRLMKDLTDSPSEETLESVVELLNTVGEQFETDSFRTGQATLEGSQLLDSLFGILDNIIQTAKISSRIKFKLIDIKELRHDKNWNSDKKDNGPKTIQQIHEEEERQRQLKNNSRSNSRRTNNSSNRHSFRRDAPPASKDSFITTRTYSQRNSQRAPPPKEEPAAPTSTATNMFSALMGESDDEE | – | – | – | 7.9 ± 1.7 relative to 100 mRNA | 8.8 ± 1.6 relative to 100 mRNA | 3 ± 2.2 relative to 100 mRNA | 5.3 ± 1.1 relative to 100 mRNA | 13 ± 2.3 relative to 100 mRNA | 6.4 ± 0.91 relative to 100 mRNA | 88 ± 12 relative to 100 mRNA | 71 ± 8.6 relative to 100 mRNA |
| eIF4G2-GFP (natural protein, Saccharomyces cerevisiae, UniProt P39936 1-914, looked up, eIF4G2, Saccharomyces cerevisiae; also called TIF4632-GFP; source: S. cerevisiae strain RP2384 (TIF4632-GFP::G418), in cell extract) MTDQRGPPPPHPQQANGYKKFPPHDNQYSGANNSQPNNHYNENLYSAREPHNNKQYQSKNGKYGTNKYNNRNNSQGNAQYYNNRFNNGYRLNNNDYNPAMLPGMQWPANYYAPQMYYIPQQMVPVASPPYTHQPLNTNPEPPSTPKTTKIEITTKTGERLNLKKFHEEKKASKGEEKNDGVEQKSKSGTPFEKEATPVLPANEAVKDTLTETSNEKSTSEAENTKRLFLEQVRLRKAAMERKKNGLISETEKKQETSNHDNTDTTKPNSVIESEPIKEAPKPTGEANEVVIDGKSGASVKTPQHVTGSVTKSVTFNEPENESSSQDVDELVKDDDTTEISDTTGGKTVNKSDDETINSVITTEENTVKETEPSTSDIEMPTVSQLLETLGKAQPISDIYEFAYPENVERPDIKYKKPSVKYTYGPTFLLQFKDKLKFRPDPAWVEAVSSKIVIPPHIARNKPKDSGRFGGDFRSPSMRGMDHTSSSRVSSKRRSKRMGDDRRSNRGYTSRKDREKAAEKAEEQAPKEEIAPLVPSANRWIPKSRVKKTEKKLAPDGKTELFDKEEVERKMKSLLNKLTLEMFDSISSEILDIANQSKWEDDGETLKIVIEQIFHKACDEPHWSSMYAQLCGKVVKDLDPNIKDKENEGKNGPKLVLHYLVARCHEEFEKGWADKLPAGEDGNPLEPEMMSDEYYIAAAAKRRGLGLVRFIGYLYCLNLLTGKMMFECFRRLMKDLNNDPSEETLESVIELLNTVGEQFEHDKFVTPQATLEGSVLLDNLFMLLQHIIDGGTISNRIKFKLIDVKELREIKHWNSAKKDAGPKTIQQIHQEEEQLRQKKNSQRSNSRFNNHNQSNSNRYSSNRRNMQNTQRDSFASTKTGSFRNNQRNARKVEEVSQAPRANMFDALMNNDGDSD | – | – | – | 12 ± 8.1 relative to 100 mRNA | 5.3 ± 2.7 relative to 100 mRNA | 3.8 ± 2.3 relative to 100 mRNA | 3.2 ± 0.45 relative to 100 mRNA | 8.3 ± 3.4 relative to 100 mRNA | 3.5 ± 1.4 relative to 100 mRNA | 29 ± 5.4 relative to 100 mRNA | 32 ± 11 relative to 100 mRNA |
| PAB1, GFP tagged (natural protein, Saccharomyces cerevisiae, UniProt P04147 1-577, looked up, source: S. cerevisiae strain carrying the GFP fusion, in cell extract) MADITDKTAEQLENLNIQDDQKQAATGSESQSVENSSASLYVGDLEPSVSEAHLYDIFSPIGSVSSIRVCRDAITKTSLGYAYVNFNDHEAGRKAIEQLNYTPIKGRLCRIMWSQRDPSLRKKGSGNIFIKNLHPDIDNKALYDTFSVFGDILSSKIATDENGKSKGFGFVHFEEEGAAKEAIDALNGMLLNGQEIYVAPHLSRKERDSQLEETKAHYTNLYVKNINSETTDEQFQELFAKFGPIVSASLEKDADGKLKGFGFVNYEKHEDAVKAVEALNDSELNGEKLYVGRAQKKNERMHVLKKQYEAYRLEKMAKYQGVNLFVKNLDDSVDDEKLEEEFAPYGTITSAKVMRTENGKSKGFGFVCFSTPEEATKAITEKNQQIVAGKPLYVAIAQRKDVRRSQLAQQIQARNQMRYQQATAAAAAAAAGMPGQFMPPMFYGVMPPRGVPFNGPNPQQMNPMGGMPKNGMPPQFRNGPVYGVPPQGGFPRNANDNNQFYQQKQRQALGEQLYKKVSAKTSNEEAAGKITGMILDLPPQEVFPLLESDELFEQHYKEASAAYESFKKEQEQQTEQA | – | – | – | – | – | – | – | – | – | 42 ± 9.1 relative to 100 mRNA | 26 ± 3.7 relative to 100 mRNA |
